Measurements as given in the DeepSol protein solubility set.

Assay: soluble on expression in E. coli; label from the status in PepcDB or PDB records

Soluble on expression in E. coli, not soluble:
MGSDKIHHHHHHMRYLRADERCLICSLRQAENLLKKTITSPEKRWVIFREVFRIMSEMKWGMKPLEVNGEVHRFIMEYIKEEDPFKEEKRRSNDMAIKLVEMFRPEILNSPDPVYSAAKLAVSGNLIDLGIPGWSVDEIFEKLHEVYERPFDREDFEKFRNVLMNASTLFYVADNAGEIVFDKFFIEVLKMENPSLEVVVAVRGKPIINDATIEDAKYIGLEEIATVISSGVDEPGVMLDKASEEFRKAFFEFDVVISKGQGNFEGLYEEEKKNLFFLLTAKCDFVAEVLNVPLGGKVFISSSSL
MGSDKIHHHHHHMRYRKLSDYLKERYGERVQRIVIHGGFSCPNRDGTKGKGGCIYCDATGSGFTTLMRLPIREQVMEMKKKYEKRGIKKFIAYFQSFSNTYAPVEMLRERYEEALVDDSIVQLSVSTRPDLVPERVLDLFEEFKKRVDVSVELGLQTANYRTLKKINRGHTLAEFVDAAVRVKKRGIELVVHVILNLPWDDMEDVVETAKILSALDVDGVKLHSLYVVEGTKLAEMYKKGEVKICSLEEYIDRAITFLEYLSPNVVIHRLVADPPRKGTIFGNWGKSKIEIINMIEEELERRDTYQGKKFDYLNR
MGSDKIHHHHHHMRYVILARNLDSKAGGISVYGRNLIKKLEAKGIDVIISPKEKFSYFKWLLFDVPIFILKTDADVYHAIGIIEGILLPFIKPRAKKYLTVHDLIPLKYKGRGFRKILERFLVRLGLFSARFYDKIFAVSHLTKLDVIRFGGIDENKIEVVYQPIDDKFLKTPTSGKRHKTFNIGYISRMEAYKRHELLIKLFMKYKNPNARLYLAGTGPLFKKIQKLAEEDKRIILLGFVPDDKIVEFYDMLDVYIHPSKYEGWGLPIVEATARKKPVIIFEDAEIPREVKYLCLSIDFNIINPLISNLKYLKKVGVIKNKAWRRIYENSICH
MGSDKIHHHHHHMRYVIVGSGPAGLNAIEAIREVDKEGEILLITAEKYVGYSRPLITYLLGRKVTEEKMYYRTEDYLREMRVDIKPATRVEKVIPEEKTVVTDSGEEIRYDKLLIATGGKPFVPNIEGLTGKKGVFTFTTWEDEEKVEKYIEENDVKEAVVLGGGLIGLKTTEALMELGVKVTIVELADRILSVTFDRKASEIITEALKKEGCSVITNDTVVKVNGDDTVSSVVLKSGKEIPTKLLVIAIGVKPNVEFLKDSGIEINRGIVVNEKMETNVEGVYAAGDCTEFYDLIDGQRKTIAIWPVAVAQGRVAGYNMAGKNVRYPGGIPMNSVELAGIPTISVGHSNVEDGGYEILTFEEGNTYKKMVLKDNRLVGAILVNDIDRAGIYTGLILQKLDVSSFKDRLLDENFGLVYLPKEFRKKMLEGEIKIWLE
MGSDKIHHHHHHMSDCQAKPETNYLSTSSGKYLTAFQRKLLLQNLQKSLVESYRQRIEIMLLADEGKTQRSICQTLGCCAATARHWTHIARSGMAHQWQDCPIGRPKAVNDQYLERLKELVNSSPRAHGYAFRRWTANWLGKHLAKEFGIEVSDRHIKRLLKQMGLSTLPKPSNVEQNSTEQVQGSKILICDLQSAGIPDDSEFLPINFAKLGKHLDIHGAKYICSVAYSATVQQYSGSFSFYRGISTLSSTS
MGSDKIHHHHHHMSDLDRATLLDATGVAKSFGAVRALTDASLHVGAGEVVALMGANGAGKSTFVKILTGALRPDAGRVLIRGEVARTGSPAQARRSGLVPVYQEPSLIPDLDVADNLRLGDTPSDAVLHWMNELGINGLRFDDMISDLPLATLRILDLARALASQPDVLLLDEMTAALPTNLVENVLRVVRAQADAGCGVIYISHRFTEIAELCDSATILRDGRTVGDLQIEPGVENRCVELMLGAKLSLDKRDAGALRQNTGVPRLRASQIAVAPTVSDVSFDLYPGEVLGVVALEGQGQDEVFNVLSGHQKPTGGALQVDGTSVSFSHPADAIAAGLSYVPGDRAEALLRERSVRENIALPFSARLRDWGPLKTRHERHRVDHAIEKLQIDTRAQGEVQRLSGGNQQKVTIGRWLAHGVRTLLLFDPTRGIDVRTKRQIYPLVRELAEQGAAVLFYTSELDEIPLACDRAIVIFNGRVVNVVNAADATEEVLMRAAYGLTDVSAAS
MGSDKIHHHHHHMSDSQTVSAAVAKLYNTYPFPPEALLDEPPPGYNWRWNWLAAHNFCTGQKPQKQDIRILDAGCGTGVSTEYLVHLNPQASVVGIDLSTGALDVAKERCQRSGANRVEFHHLSLFDVEQLPGEFDLINCVGVLHHTSDPIRGIQALAQKLAPGGLMHIFVYGELGRWEIQLMQKAIALLQGDKKGDYRDGVQVGRQIFASLPENNRIVKYEKQRWSLENHKDEHFADMYVHPQEIDYNIETLFELIDASGLEFIGFSNPSFWDLERLLSKAPELVERAKELSDRQLYRLIELLDPEVTHYEFFLGRPPLVKTDWSDDKALLAAIPELNPCIEGFPSQCFFNYNYQIVNLSEPEFEFMQKCDANSTVAEILADVQLGLDEVRKLLQQQLILLAPA
MGSDKIHHHHHHMSDTITFWGVRGSIACPFPGHMAYGGNTSCVALGLGGQTVILDAGTGIRALGASAALRGVSRLALLFSHVHRDHIEGFPFFAPAHDRAVRLDIFAGPIEGASIRQLLDNLMSRPMFPLSLDQLRAQKVFHDLPAATAFTLFERIKVRTAALNHPGGATAYRFEHGGRVVCYVTDTEHRPGQPDAGLLELIAGADYVLYDSTYTDREFAAHRGWGHSTWEEGVRLCRQAGARHLVIFHHDPDHDDAAMAAIETAARAAWGGTLVAREGMTIALDSGVVTQAGR
MGSDKIHHHHHHMSEESIIVVGGGIAGLTGAALLSKEGYQVTLVEAHSQLGGCAGTFKRGSYTFDVGATQVAGLERGGIHHRLFNYLDIPLPDAKILDPGCSVTLGDGSRPINLWHDPLRWQKERQEQFPGSEIFWSLCSKIHESNWEFVERDPILPVRNFWDLSQLIRAIRPSNLLTGFLSKLTIADLLTITGCHKDRRLRSFLDLQLKLYSQEPASRTAALYGATVLQMAQSPRGLWHLHGSMQILSDLLKDSFLRDGGSLLIGHRVTKIIRKENSNVFDVKVLDRRKNLLQMKASDIVFSLPPQSLLDLIPIDGGLSTTYRESIKKLPKPSGAVVFYGALRRVDLPVDCPGHIQVFDEHFGSLFISISLENDQRAPIGMATLIASVFVDIDQWSNLDSQAYTRKKSVVSKQIRAILDHKFDLLETSWDHQELSTPRSFERWTGRPSGIVGGLGQHPDQFGPFGLSSRTPLKGLWLCGDSIYPGEGTAGVSQSALMVVRQLLESKGRHLNIPVFN
MGSDKIHHHHHHMSEFDVAVIGAGPAGSSAAIRLAQNGMNVLLVERGDPPGTKNVSGAVLWGNELAKVVPDWERSAPVERYVTRKEVAFLTEKSKIAISFSSEELQNSKSGKIIVRGKFDQWLAKKAKDAGAMLVTGVTVDRLAIDNGKVIGIQQDNDVITADAVVVAEGANPRVLINSGLRPKLSDRDVALGIKETIKLPENVINERFNVDSKSGFASEFVLGFLDDGLLSGGFLYTNKDTVSLGIVASLDRLRANGVTHSYDIMGKFEEHPFIKNLIKDGIPDEYAAHLVPEGGISSMPKLYGNGYLVAGDAAAFTFSNGMVLQGINYAITSGILAADTIIENRNNINENTLAKYVDKLRESYVLSDLYNFNGIQNVTWSDFVQKSLPTLAESVMMSLFDEKGMPKKHLRQIVTDAMKSGHMKYSDLITNGYRVIKRM
MGSDKIHHHHHHMSELNNQLWASADILRGKMDASEYKNYLLGLVFYKYLSDQELRAVYEEEQGKVAEYPSRDEQFSGLLDWYNDDAAGIREIISKKLGYFIEPDSLFYTFRKKAGEYELHISDIQNAFIELGRQGEHFAGLFDDVDLASTKLGANAQQRNVTITEVIKALDEIDLFGHDGDVIGDAYEYLIGQFAAGAGKKAGEFYTPQAVSKIISEIVAIGQEETAPFHIYDPTMGSGSLMLNIRRFVKNPGQVHYHGQELNTTTYNLARMNLILHNVEQSQMRLRNGDTLDEDWPTDEPYLFNAVVMNPPYSANWSADGKFLSDPRFEQYGKLAPKSKADFSFLLHGFYHLNEKGTMGIVLPHGVLFRGASEGVIRKTLLDMGAIEAVIGLPANIFYGTSIPTVVLILKKNRAKRDVLFIDASKAFEKQKNQNCIRSQDIRKIVDTYKKRSSSPQYAHLADYDEIVRNDYNLNIPRYVDTFEEEAPIDIVALSKEITDLNLQIKQREAEFLGMLSQLAITDETKELIEATKGIFM
